Test results from US10894811B2, “Peptide inhibitors of calcium channels” (The University of North Carolina at Chapel Hill, priority 2016, dated 2021).
“Also recorded” adds a separate entry of the source.

Experiments:
tracheal rings = assay: Myography of murine tracheal rings (ex vivo contraction); set-up: species or system mouse; settings: pretreatment with recombinant SPLUNC1 protein for 1 h prior to agonist addition
Protocol: Myography of Murine Tracheal Rings: Tracheas were excised from 8-week old SPLUNC1 WT and KO mice. After removing excessive connecting tissue, the trachea was cut into ˜4-mm rings, mounted on a DMT 620M myography apparatus and allowed to rest in modified Ringer's solution (119 mM NaCl, 4.7 mM KCl, 1.17 mM MgSO4, 1.18 mM KH2PO4, 2.5 mM CaCl2, 25 mM NaHCO3, 0.027 mM EDTA, 5.5 mM glucose) with continuous oxygenation (95% O2/5% CO2) at 37° C. for 20 min with no applied tension. Optimal passive tension (1 mN) was then applied to the rings. The baseline force was then recorded after stable tension was achieved. The induced contractile force of each ring was assessed by measuring contraction stimulated by 60 mM KCl or […] Ach (unless indicated otherwise), respectively.

hASMCs = assay: Calcium imaging using fura-2 (thapsigargin-induced Ca2+ signaling); format: cell-based, human
Protocol: Calcium imaging: Calcium imaging using fura-2 was adapted from a previous published protocol with minor modifications (Sheridan et al., J. Biol. Chem. 288:33509 (2013)). Briefly, hASMCs were loaded with 2 μM fura-2 AM (Invitrogen) and serosal media from HBEC cultures or recombinant SPLUNC1 at 37° C. for 1 h. Cultures were washed with a standard Ringer's solution (101 mM NaCl, 12 mM NaHCO3, 1.2 mM MgCl2, 1.2 mM CaCl2, […], 24 mM HEPES, 10 mM glucose, pH 7.4) or with Ca^2+-free Ringer's solution as indicated. Cultures were then placed in the Ringer's solution, and images were collected with a 40×1.4 NA oil objective on a Nikon Ti-S inverted microscope. Fura-2 fluorescence was acquired alternately at 340 and 380 nm (emission >450 nm) using LUDL filter wheels, obtained with an Orca FLASH 4.0 CMOS camera (Hammamatsu), and controlled with HCImageLive software. Cell bodies were identified as individual regions of interest (ROIs). Background subtraction was performed using a region without the cell. Signals were converted to relative changes (F/F0) where F0 was the ratio of the average fluorescent intensity (340/380) of ROIs at 0 time point. A total of 20 cells/coverslip were recorded. ΔF/F0 represents average peak fluorescent intensity changes of three independent experiments.

ASMC plasma membranes = assay: SPLUNC1 binding to ASMCs after Orai1 shRNA (surface biotinylation, fluorescent SPLUNC1 binding assay); set-up: species or system human; settings: Orai1 shRNA knockdown vs scrambled control, 72 h post transfection
Protocol: Short hairpin RNA (shRNA) plasmid against Orai1 and scrambled control shRNA plasmid were purchased from Sigma Aldrich and published previously (Sheridan et al., J. Biol. Chem. 288:33509 (2013)). Transfections of all plasmid DNA and shRNA were performed using Lipofectamine 2000 reagent (Life Technologies) according to the manufacturer's instructions.
Fluorescent SPLUNC1 binding assay: Human ASMCs were transfected with scrambled control shRNA and Orai1 shRNA respectively. 72 h post transfection, cells were treated with or without SPLUNC1-DyLight 633 for 1 h, then washed for 5 times with ice-cold Ringer's solution. ASMC-bounded SPLUNC1-Dylight 633 was detected by fluorescent plate reader (Tecan). Cells were also stained with calcein AM (Life Technologies) as cell number control. Relative fluorescent intensity was calculated by normalizing fluorescent intensity at 658 nm to 526 nm.
Surface biotinylation: hASMCs were treated with or without SPLUNC1 for 4 h. Cells were then washed with prechilled PBS^++ (phosphate buffered saline supplemented with 1 mM CaCl2 and 1 mM MgCl2), and then labeled with 0.5 mg/ml sulfo-NHS-biotin (Thermo) in borate buffer (85 mM NaCl, 4 mM KCl, 15 mM Na2B4O7, pH 9.0) while tumbling gently for 30 min on ice. hASMCs were incubated in PBS^++ buffer supplemented with 10% FBS for 20 min at 4° C. to quench free biotin. […]

Orai1 [1] = target: T1, Orai1 (Homo sapiens, UniProt Q96D31); assay: Surface labeling and ground state depletion super resolution microscopy; format: cell-based; set-up: expressed in transfected cells; settings: ASMC plasma membranes, after 1 h incubation
Protocol: Surface labeling and super resolution microscopy: Human ASMs were grown on 22×22 mm^2 glass coverslips and transfected with the HA-Orai1. 24 h after transfection, cells were fixed with 4% paraformaldehyde (PFA) in PBS, followed by surface labeling with mouse anti-HA antibody (BioLegend) and Alexa 488 goat anti mouse antibody (Life Technologies) at 4° C. After washing with ice cold PBS for five times, cells were incubated with 5 μM SPLUNC1-DyLight 594 for 1 h at 4° C. prior to imaging.
Prior to mounting, 90 μl of oxygen depleting medium, β-Mercaptoethylamine (MEA) was added to the cavity of depression slides. Coverslips were then mounted on the depression slides and sealed with twinsil (Picodent). Super resolution images were captured with a commercial LEICA GSD super-resolution microscope. Ground state depletion (GSD) was performed using 488 nm and 642 nm m solid-state lasers. Samples were excited using 488 nm and 642 nm lasers and sample acquisition was increased with back-pumping using the 405 nm laser as per the manufacturer's instructions. The microscope was fitted with a 160× oil-immersion objective lens.

Orai1 [2] = target: T1, Orai1; assay: Fluorescent (confocal) microscopy of Orai1 localization; format: cell-based; set-up: expressed in transfected cells; settings: ASMC treated with SPLUNC1
Protocol: Fluorescent microscopy: Human ASMs were grown on 25-mm glass coverslips for fluorescent imaging. Cells were transfected with the indicated fluorescent-labeled proteins. At 24 h post-transfection, cells were incubated with or without SPLUNC1 for 4 h, followed by methanol fixation and DAPI (1 μg/ml) staining for nucleus. For live cell imaging, cells were grown on 35-mm glass-bottom dishes (In Vivo Scientific) and transfected with the YFP-Orai1. At 24 h post-transfection, cells were incubated with SPLUNC1 and images were taken at indicated time point. All images were taken with a Leica TCS SP8 63× oil lens using the Leica Application Suite X software (Leica).

T1 sequence (Q96D31 whole entry): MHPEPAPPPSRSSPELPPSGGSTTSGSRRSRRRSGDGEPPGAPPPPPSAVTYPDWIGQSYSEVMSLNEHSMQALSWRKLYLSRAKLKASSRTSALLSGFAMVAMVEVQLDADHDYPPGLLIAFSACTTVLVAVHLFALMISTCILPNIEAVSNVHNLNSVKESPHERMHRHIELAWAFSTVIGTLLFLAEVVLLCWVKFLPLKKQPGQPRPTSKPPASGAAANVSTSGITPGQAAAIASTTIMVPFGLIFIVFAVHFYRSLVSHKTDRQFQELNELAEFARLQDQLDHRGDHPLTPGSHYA

B1: SPLUNC1: Short palate, lung and nasal epithelium clone 1, recombinant full length protein (protein, listed as Homo sapiens)
chain: MFQTGGLIVFYGLLAQTMAQFGGLPVPLDQTLPLNVNPALPLSPTGLAGSLTNALSNGLLSGGLLGILENLPLLDILKPGGGTSGGLLGGLLGKVTSVIPGLNNIIDIKVTDPQLLELGLVQSPDGHRLYVTIPLGIKLQVNTPLVGASLLRLAVKLDITAEILAVRDKQERIHLVLGDCTHSPGSLQISLLDGLGPLPIQGLLDSLTGILNKVLPELVQGNVCPLVNEVLRGLDITLVHDIVNMLIHGLQFVIKV
For B1, the “contraction (contractile force) of tracheal rings” value (tracheal rings) was “suppressed contraction”, the “ability of SPLUNC1 to inhibit Ca2+ signaling” value (hASMCs; ASMC with Orai1 knocked down by shRNA, TG) was “lost” and the “ability to suppress Ca2+ signaling, SPLUNC1 mutants/peptides” value (hASMCs; ASMCs pre-incubated with truncated SPLUNC1 peptides (FIG. 4H)) was “Inhibition was not different”. For the same molecule, the “SR Ca2+ release” value (hASMCs; TG without extracellular Ca2+ (EGTA), pre-treatment with SPLUNC1) was “no effect”, the “thapsigargin (TG)-induced Ca2+ flux (peak fura-2 ratio change)” value (hASMCs; human ASMCs, co-incubated 1 h) was “significantly reduced; also recorded: inhibits TG induced cytosolic Ca^2+ increases in a dose-dependent manner; also recorded: suppresses cytosolic Ca^2+ elevation in the presence of TG” and the “SOCE (store operated Ca2+ influx)” value (hASMCs; reintroduction of extracellular Ca2+ after TG, pre-treatment with SPLUNC1) was “significantly suppressed; also recorded: blocks store operated Ca^2+ influx in ASMCs”. The “SPLUNC1 binding to ASMC plasma membranes” value (ASMC plasma membranes) was “decreased; also recorded: decreases SPLUNC1 binding to the ASMC membrane; also recorded: decreases fluorescent SPLUNC1 binding to ASMCs”, the “co-localization of SPLUNC1 and Orai1” value (Orai1 [1]) was “co-localize in ASMC plasma membranes” and the “cytosolic Orai1 / Orai1 internalization” value (Orai1 [2]) was “increased; also recorded: Orai1 is internalized”.
